For series [1], the target named is T1, RNA polymerase sigma70 holoenzyme, molecular beacon derivative (Ec Esigma70 beacon) (Escherichia coli) (UniProt P0A7Z4+P0A7Z4+P0A8V2+P0A8T7+P0A800+P00579). The series can be described thus: RNAP beacon fluorescence. The following applies: Equilibrium RNAP molecular beacon fluorescence, 25 C and 1 nM RNAP in competition assays, buffer, salt and pH not in material, Kd error 20% (>0.4 nM), ~50% ….

In series [2] the target is T1, RNA polymerase sigma70 holoenzyme, molecular beacon derivative (Ec Esigma70 beacon) (Escherichia coli). The series can be described thus: competition. The settings on record: Equilibrium RNAP molecular beacon fluorescence; 25 C and 1 nM RNAP in competition assays; buffer, salt and pH not in material; Kd error 20% (>0.4 nM), ~50% ….

This note sets out measurements from publication PMC3753650.

The Kd is the equilibrium constant for the complex coming apart. Consider “TATTTGACATCAGGAAAATTTTTCTGTTTAA (double strand) [probe 22(-11T)]”, for which the Kd in series [1] was 0.12 µM.
In the case of “GGAAAATTTTTTGGTTTAATAGA / ACCAAAAAATTTTCC [probe 9(-11T)]”, the binding signal (fold weaker than probe 9) in series [1] was determined as 300.
On to “AAAAAAAGAATTTGACATCAGGAAAATTTTTTGGTTGCT (double strand) [probe 25]”, for which the Kd in series [1] was 0.011 µM.
For “TATTTGCTTTCAGGAAAATTTTTCTGTATAAA / CAGAAAAATTTTCCTGAAAGCAAATA [probe 8(-7A)]”, the binding signal (fold weaker than probe 8) in series [1] was 210.
For the sequence “AAAAAAAGAATTTGACATCAGGAAAATTTTTTGGT / AGCAACCAAAAAATTTTCCTGATGTCAAATTCTTTTTTT [probe 27]”, the Kd in series [1] is under 0.0001 µM.
On the same count and under the same terms, the value for “TGGTTGACTTTTGCCAGATACTGAGGCTGGC / GCCTCAGTATCTGGCAAAAGTCAACCA [probe 13]” was 0.1 µM; that for “TGGTTGACTTTTGCCAGATACTGAGGCTGGCT / GCCTCAGTATCTGGCAAAAGTCAACCA [probe 12]” was 0.011 µM.
Turning to “TATTTGACATCAGGAAAATTTTTTGGA (double strand) [probe 15(-12A)]”, in series [1], the binding signal (fold weaker than probe 15) is 4.
In the case of “TATTTGACATCAGGAAAATTTTTCTGTA / TTATACAGAAAAATTTTCCTGATGTCAAATA [probe 28]”, in series [1], the binding signal (fold tighter than probe 19) is 5.
Regarding “GGAAAATTTTTTGGTATAAAAGA / ACCAAAAAATTTTCC [probe 9(-7A)]”, the binding signal (fold weaker than probe 9) in series [1] stood at 710.
As for “TATTTGACATCAGGAAAATTTTTCTGTTTAAT / ACAGAAAAATTTTCCTGATGTCAAATA [probe 6(-11T)]”, the binding signal (fold weaker than probe 6) in series [1] (~120-fold tighter than 5(-11T)) is 1000.
“TATTTGACATCAGGAAAATTTTTCTGT (double strand) [probe 1]”: the Kd in series [1] was 0.062 µM.
“TATTTGACATCAGGAAAATTTTTTGGAATAA / TCCAAAAAATTTTCCTGATGTCAAATA [probe 17(-12A)]”: the binding signal (fold tighter than 16(-12A)) in series [1] (strongly weaker than probe 17) worked out at 6.
As to “TATTTGACATCAGGAAAATTTTTCTGTTTAAT (double strand) [probe 23(-11T)]”, in series [1], the Kd is 0.016 µM.
Consider “TATTTGACATCAGGAAAATTTTTCTGTATAA / CAGAAAAATTTTCCTGATGTCAAATA [probe 31]”, for which the binding signal (fold weaker than probe 5) in series [2] stood at 10.
Turning to “TATTTGACATCAGGAAAATTTTTCTGTA / ATTATACAGAAAAATTTTCCTGATGTCAAATA [probe 29]”, in series [1], the binding signal (fold tighter than probe 19) turned out to be 13.
For the sequence “TATTTGACATCAGGAAAATTTTTTGGAATAAT / TCCAAAAAATTTTCCTGATGTCAAATA [probe 18(-12A)]”, in series [1], the binding signal (fold tighter than 17(-12A)) was 300.
Take “TATTTGACATCAGGAAAATTTTTCTGTTGTTA / ACAGAAAAATTTTCCTGATGTCAAATA [probe 11(-7A)]”: the binding signal (fold weaker than probe 11) in series [1] is 2.4.
Regarding “TATTTGACATCAGGAAAATTTTTCTGTTTAA / ACAGAAAAATTTTCCTGATGTCAAATA [probe 5(-11T)]”, the binding signal (fold weaker than probe 5) in series [1] was determined as 200.
On to “TATTTGACATCAGGAAAATTTTTCTGTATAA / ACAGAAAAATTTTCCTGATGTCAAATA [probe 5]”, for which the binding signal (fold tighter than probe 2) in series [2] amounted to 50.
Turning to TATAATGGGTTCAT [probe 30], the Kd in series [1] amounted to 0.073 µM.
Regarding “TGGTTGACTTTTGCCAGATACTGAGGCTGGCA / GCCTCAGTATCTGGCAAAAGTCAACCA [probe 12(-7A)]”, the Kd in series [1] is 0.1 µM.
In the case of “TATTTGACATCAGGAAAATTTTTCTGTAGTTA / ACAGAAAAATTTTCCTGATGTCAAATA [probe 10(-7A)]”, the binding signal (fold weaker than probe 10) in series [1] turned out to be 8.
Turning to “AAAAAAAGAATTTGACATCAGGAAAATTTTTTGGTTGCT / ACCAAAAAATTTTCCTGATGTCAAATTCTTTTTTT [probe 26]”, the Kd in series [1] is under 0.0001 µM.
Take “TATTTGACATCAGGAAAATTTTTCTGTT / ACAGAAAAATTTTCCTGATGTCAAATA [probe 2(-11T)]”: the binding signal (fold weaker than probe 2) in series [1] came to 5.
For the sequence “TATTTGACATCAGGAAAATTTTTCTGTTTAAA / ACAGAAAAATTTTCCTGATGTCAAATA [probe 6(-11T,-7A)]”, the binding signal (fold weaker than probe 6(-11T)) in series [1] came to 110.
Regarding “TATTTGACATCAGGAAAATTTTTCTGTTT / ACAGAAAAATTTTCCTGATGTCAAATA [probe 3(-11T)]”, the binding signal (fold weaker than probe 3) in series [1] was determined as 5.
In the case of “AAAAAAAGAATTTGACATCAGGAAAATTTTTTGGT (double strand) [probe 24]”, in series [1], the Kd came to 0.00019 µM.
